Measured values from publication PMC8383480.

Target: peptide probe (designed thiol-sensitive probe mimicking the substrate of the main protease)
Assay: SPR

main protease of SARS-Cov-2 (from UniProt P0DTD1) (enzyme)
koff: 0.182 s⁻¹
kon: 1.03e+08 M⁻¹ s⁻¹
